Patent US20260069728A1, “MULTI-TARGETING COMPOUND AND USE THEREOF” (Chengdu Shetai Medical Technology Co., Ltd., priority 2023, published 2026)
Read-outs that look alike come from different tables or passages of the source. *1 amine or outer side, *2 acyl side, *3 side chain or, on linkers, in order; H or OH if unused. Where a SMILES comes first, the peptide text is derived from it. Bridges are numbered along the chain shown (N, C = ends). [ ]: non-standard residue; d: D form. The star is where a group is joined. X1 = N#C[C@@H]1CC(F)(F)CN1C(=O)CNC(=O)c1ccnc2ccc(OCCCN3CCN(*)CC3)cc12; DOTA = O=C(O)CN1CCN(CC(=O)O)CCN(CC(=O)*)CCN(CC(=O)O)CC1; 2Nal = N[C@@H](Cc1ccc2ccccc2c1)C(=O)O; Cit = NC(=O)NCCC[C@H](N)C(=O)O; Suc = O=C(CCC(=O)[*:2])[*:1]; AEEA = NCCOCCOCC(=O)O

Legend:
[1] = Small animal PET imaging and biodistribution study; format: in vivo, NSG mice; conditions: NSG, mouse, in vivo, iv, 7.4 MBq, total radioactivity
Summary of the method: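 NSG mice bearing ~150 mm^3 subcutaneous U87 MG tumours received ~7.4 MBq of 68Ga-labelled tracer i.v., with micro-PET/CT static 20-min 3D scans at 30, 60 and 120 min. For biodistribution, mice were euthanised at 30/60/120 min, or 30/60/90 min for SDYD07, SDYD08 and SDYD07-1. Tissue radioactivity was decay-corrected and expressed as SUV and %ID/g.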

[2] = Competitive experiment of radioligand against endogenous free amino acids (histidine, cysteine); format: physicochemical; conditions: 37° C., 2 hours
Experimental: (§1) To an EP tube containing 150 μL of PBS buffer, 150 μL of H2O, and 50 μL of ^68Ga-SDYD01 was added 50 μL of cysteine hydrochloride solution (10 mM) or histidine solution (10 mM). The mixture was vortexed and incubated at 37° C. for 2 hours, after which samples were taken for radio-HPLC analysis.
This study utilized different concentrations of histidine and cysteine solutions to investigate whether histidine (or cysteine) competes with ^68Ga-SDYD01 for metal chelation.
To an EP tube containing 150 μL of PBS buffer, 150 μL of H2O, and 50 μL of ^68Ga-SDYD02 was added 50 μL of cysteine hydrochloride solution (10 mM) or histidine solution (10 mM). The mixture was vortexed and incubated at 37° C. for 2 hours, after which samples were taken for radio-HPLC analysis.
This study utilized different concentrations of histidine and cysteine solutions to investigate whether histidine (or cysteine) competes with ^68Ga-SDYD02 for metal chelation.
as §1, with “^68Ga-SDYD05” for “^68Ga-SDYD01”, “analysis. This study utilized different concentrations of histidine and cysteine solutions to investigate whether histidine (or cysteine) competes with ^68Ga-SDYD05 for metal chelation.” for “analysis.”
as §1, with “^68Ga-SDYD06” for “^68Ga-SDYD01”, “analysis. This study utilized different concentrations of histidine and cysteine solutions to investigate whether histidine (or cysteine) competes with ^68Ga-SDYD06 for metal chelation.” for “analysis.”

[3] = absolute uptake value in the tumor

N#C[C@@H]1CC(F)(F)CN1C(=O)CNC(=O)c1ccnc2ccc(OCCCN3CCN(C(=O)CCC(=O)N[C@@H](CCCCNC(=O)CN4CCN(CC(=O)O)CCN(CC(=O)O)CCN(CC(=O)O)CC4)C(=O)NCCOCCOCC(=O)NCCOCCOCC(=O)N[C@@H](CCCNC(=N)N)C(=O)N[C@@H](CCCNC(=N)N)C(=O)N[C@@H](Cc4ccc5ccccc5c4)C(=O)N[C@H]4CSSC[C@@H](C(=O)N[C@@H](CCCNC(=N)N)C(N)=O)NC(=O)[C@H](CCCNC(N)=O)NC(=O)[C@H](CCCNC(=N)N)NC(=O)[C@H](Cc5ccc(O)cc5)NC(=O)[C@@H]5CCCN5C(=O)[C@H](CCCCN)NC(=O)[C@H](CCCCN)NC(=O)[C@H](CCCNC(N)=O)NC(=O)[C@H](Cc5ccc(O)cc5)NC4=O)CC3)cc12 [^68Ga-SDYD01, metal not drawn] ({X1-Suc}-K(DOTA)[AEEA][AEEA]RR[2Nal]CY[Cit]KKPYR[Cit]CR-NH2; disulfide 7-16)
tissue uptake at 0.5 h [1, 3]: ≥ 10 %ID/g
tissue uptake at 1 h [1, 3]: ≥ 10 %ID/g
competitive chelation in the presence of histidine and cysteine (in words) [2]: did not undergo competitive chelation
radiochemical purity after incubation with cysteine ([2]; cysteine hydrochloride solution (10 mM)): 93%
radiochemical purity after incubation with histidine ([2]; histidine solution (10 mM)): 93%

CCCCCC(=O)N[C@H]1CSCc2cc(CSCCNC(=O)[C@H](CCCCNC(=O)CN3CCN(CC(=O)O)CCN(CC(=O)O)CCN(CC(=O)O)CC3)NC(=O)COCCOCCNC(=O)COCCOCCNC(=O)CCN3C(=O)CC(SCCNC(=O)CCC(=O)NCc4ccc(NC(=O)COCC(=O)N[C@H](Cc5ccccc5)C(=O)N[C@@H](CCC(N)=O)C(=O)N[C@@H](Cc5c[nH]c6ccccc56)C(=O)N[C@@H](C)C(=O)N[C@H](C(=O)NCC(=O)N[C@@H](Cc5c[nH]cn5)C(=O)NC(CC(C)C)CC(C)C)C(C)C)cc4)C3=O)cc(c2)CSC[C@@H](C(=O)O)NC(=O)[C@H](Cc2ccccc2)NC(=O)[C@H](CCC(N)=O)NC(=O)C([C@@H](C)O)NC(=O)[C@@H]2CCCN2C(=O)[C@@H]2CCCN2C1=O (stereo partly shown) [^68Ga-SDYD04, metal not drawn]
tissue uptake at 0.5 h ([1]; 30 minutes post-injection, read-out: absolute uptake value in the tumor): ≥ 10 %ID/g
tissue uptake at 1 h ([1]; 60 minutes post-injection, read-out: absolute uptake value in the tumor): ≥ 10 %ID/g
